B1: Fatty acid-binding protein, intestinal, P02693 (parent)
chain: MAFDGTWKVDRNENYEKFMEKMGINVVKRKLGAHDNLKLTITQEGNKFTVKESSNFRNIDVVFELGVDFAYSLADGTELTGTWTMEGNKLVGKFKRVDNGKELIAVREISGNELIQTYTYEGVEAKRIFKKE

Variants of: B1
Conditions: Rattus norvegicus; pH 7.3; 20 °C; GdnHCl; Fluorescence; potassium phosphate 20 mM; structure 1IFB; whole UniProt chain shown

| Variant | denaturant midpoint (higher = more stable) [M] | unfolding free energy [kcal/mol] |
| --- | --- | --- |
| MAFDGTWKVDRNENYEKFMEKMGINVVKRKLGAHDNLKLTITQEPNKFTVKESSNFRNIDVVFELGVDFAYSLADGTELTGTWTMEGNKLVGKFKRVDNGKELIAVREISGNELIQTYTYEGVEAKRIFKKE [G45P] | 0.8 | 3.1 |
| MAFDGTWKVDRNENYEKFMEKMGINVVKRKLGAHDNLKLTITQEGNKFTVKESSNFRNIDVVFELGVDFAYSLADGTELTGTWTMEGNKLVGKFKRVDNPKELIAVREISGNELIQTYTYEGVEAKRIFKKE [G100P] | 0.7 | 3.5 |
| MAFDGTWKVDRNENYEKFMEKMGINVVKRKLGAHDNLKLTITQEGNKFTVKESSNFRNIDVVFELGVDFAYSLADGTELTGTWTMEGNKLVGKFKRVDNGKELIAVREISPNELIQTYTYEGVEAKRIFKKE [G111P] | 1 | 5 |
| MAFDGTWKVDRNENYEKFMEKMGINVVKRKLGAHDNLKLTITQEGNKFTVKESSNFRNIDVVFELPVDFAYSLADGTELTGTWTMEGNKLVGKFKRVDNGKELIAVREISGNELIQTYTYEGVEAKRIFKKE [G66P] | 0.9 | 2.5 |
| MAFDGTWKVDRNENYEKFMEKMGINVVKRKLGAHDNLKLTITQEGNKFTVKESSNFRNIDVVFELGVDFAYSLADGTELTGTWTMEGNKLVGKFKRVDNGKELIAVREISGNELIQTYTYEPVEAKRIFKKE [G122P] | 0.6 | 1.2 |
